Data set [1] concerns the target _(MPPΔ3)Skd3_WB (MPP-cleaved Skd3 without the C-terminal hydrophobic residues of the inhibitory sequence, with E455Q) (human). Description: mass photometry.
Data set [2] shares this target. In words: mass photometry. This is another data set of the same source.
Data set [3] deals with the molecule itself. In words: electron microscopy, 2D class averages.
The target of data set [4] is FITC-casein (UniProt P02662). In words: fluorescence polarisation. A general note: Fluorescence polarisation rises when a labelled molecule tumbles more slowly, as on binding a larger partner.
FITC-casein, sequence (P02662 16-214): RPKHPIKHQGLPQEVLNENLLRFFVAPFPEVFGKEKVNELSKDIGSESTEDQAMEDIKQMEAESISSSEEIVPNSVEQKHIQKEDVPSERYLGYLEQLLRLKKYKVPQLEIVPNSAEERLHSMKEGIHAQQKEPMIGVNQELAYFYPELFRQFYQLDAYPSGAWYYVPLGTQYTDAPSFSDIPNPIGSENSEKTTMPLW
The target in data set [5] is FITC-casein (UniProt P02662). Description: fluorescence polarisation. The source holds these as a separate data set.
The data set “mass photometry” deals with the molecule itself. Description: mass photometry.

The term stoichiometry N denotes the number of molecules, sites or subunits per partner or assembly. For orientation: Kd means the equilibrium constant for the complex coming apart. A lower Kd goes with higher affinity.

Values joined by “and” are separate entries in the source; they are usually repeats but may differ in a detail not shown here. Equal values may be shown once. Read-outs that look alike come from different tables or passages of the source.

For the molecule “_(MPPΔ3)Skd3_WB (MPP-cleaved Skd3 without the C-terminal hydrophobic residues of the inhibitory sequence, with E455Q) (enzyme)”, the stoichiometry N was 6 in data set [1] and 12 in data set [2].

B1: _(PARL)Skd3 (PARL-cleaved Skd3, human ClpB), wild type (enzyme, UniProt Q9H078 127-707, looked up)
chain: YSKSPSNKDAALLEAARANNMQEVSRLLSEGADVNAKHRLGWTALMVAAINRNNSVVQVLLAAGADPNLGDDFSSVYKTAKEQGIHSLEDGGQDGASRHITNQWTSALEFRRWLGLPAGVLITREDDFNNRLNNRASFKGCTALHYAVLADDYRTVKELLDGGANPLQRNEMGHTPLDYAREGEVMKLLRTSEAKYQEKQRKREAEERRRFPLEQRLKEHIIGQESAIATVGAAIRRKENGWYDEEHPLVFLFLGSSGIGKTELAKQTAKYMHKDAKKGFIRLDMSEFQERHEVAKFIGSPPGYVGHEEGGQLTKKLKQCPNAVVLFDEVDKAHPDVLTIMLQLFDEGRLTDGKGKTIDCKDAIFIMTSNVASDEIAQHALQLRQEALEMSRNRIAENLGDVQISDKITISKNFKENVIRPILKAHFRRDEFLGRINEIVYFLPFCHSELIQLVNKELNFWAKRAKQRHNITLLWDREVADVLVDGYNVHYGARSIKHEVERRVVNQLAAAYEQDLLPGGCTLRITVEDSDKQLLKSPELPSPQAEKRLPKLRLEIIDKDSKTRRLDIRAPLHPEKVCNTI
Regarding B1, the “stoichiometry N” value in data set [3] was 6 and 7. Besides, the Kd was found to be 3.4 µM with FITC-casein [4] and 0.86 µM with FITC-casein [5].

B2: Skd3_L1,L2GH_WB (_(PARL)Skd3 with the L1GH and L2GH turn loop mutations and E455Q) (enzyme)
chain: YSKSPSNKDAALLEAARAGHMQEVSRLLSEGADVNAKHRLGWTALMVAAINGHNSVVQVLLAAGADPNLGDDFSSVYKTAKEQGIHSLEDGGQDGASRHITNQWTSALEFRRWLGLPAGVLITREDDFNNRLNNRASFKGCTALHYAVLADDYRTVKELLDGGANPLQRNEMGHTPLDYAREGEVMKLLRTSEAKYQEKQRKREAEERRRFPLEQRLKEHIIGQESAIATVGAAIRRKENGWYDEEHPLVFLFLGSSGIGKTELAKQTAKYMHKDAKKGFIRLDMSEFQERHEVAKFIGSPPGYVGHEEGGQLTKKLKQCPNAVVLFDQVDKAHPDVLTIMLQLFDEGRLTDGKGKTIDCKDAIFIMTSNVASDEIAQHALQLRQEALEMSRNRIAENLGDVQISDKITISKNFKENVIRPILKAHFRRDEFLGRINEIVYFLPFCHSELIQLVNKELNFWAKRAKQRHNITLLWDREVADVLVDGYNVHYGARSIKHEVERRVVNQLAAAYEQDLLPGGCTLRITVEDSDKQLLKSPELPSPQAEKRLPKLRLEIIDKDSKTRRLDIRAPLHPEKVCNTI
Consider B2, for which, in the data set “mass photometry”, the “ratio of dodecamer relative to hexamer” value worked out at 0.41 ± 0.12; the “stoichiometry N” value was 6 and 12.

B3: _(PARL)Skd3_WB (PARL-cleaved Skd3 with the Walker B mutation E455Q) (enzyme, human, UniProt Q9H078 127-707, looked up)
chain: YSKSPSNKDAALLEAARANNMQEVSRLLSEGADVNAKHRLGWTALMVAAINRNNSVVQVLLAAGADPNLGDDFSSVYKTAKEQGIHSLEDGGQDGASRHITNQWTSALEFRRWLGLPAGVLITREDDFNNRLNNRASFKGCTALHYAVLADDYRTVKELLDGGANPLQRNEMGHTPLDYAREGEVMKLLRTSEAKYQEKQRKREAEERRRFPLEQRLKEHIIGQESAIATVGAAIRRKENGWYDEEHPLVFLFLGSSGIGKTELAKQTAKYMHKDAKKGFIRLDMSEFQERHEVAKFIGSPPGYVGHEEGGQLTKKLKQCPNAVVLFDQVDKAHPDVLTIMLQLFDEGRLTDGKGKTIDCKDAIFIMTSNVASDEIAQHALQLRQEALEMSRNRIAENLGDVQISDKITISKNFKENVIRPILKAHFRRDEFLGRINEIVYFLPFCHSELIQLVNKELNFWAKRAKQRHNITLLWDREVADVLVDGYNVHYGARSIKHEVERRVVNQLAAAYEQDLLPGGCTLRITVEDSDKQLLKSPELPSPQAEKRLPKLRLEIIDKDSKTRRLDIRAPLHPEKVCNTI
In the case of B3, the Kd with FITC-casein [4] came out at 3.6 µM. In the data set “mass photometry”, the “stoichiometry N” value worked out at 6.

B4: _(PARL)Skd3_ARD (isolated ankyrin repeat domain of Skd3) (domain or fragment)
chain: VTTGSLGEPQWLRVATGGRPGTSPALFSGRGAATGGRQGGRFDTKCLAAATWGRLPGPEETLPGQDSWNGVPSRAGLGMCALAAALVVHCYSKSPSNKDAALLEAARANNMQEVSRLLSEGADVNAKHRLGWTALMVAAINRNNSVVQVLLAAGADPNLGDDFSSVYKTAKEQGIHSLEDGGQDGASRHITNQWTSALEFRRWLGLPAGVLITREDDFNNRLNNRASFKGCTALHYAVLADDYRTVKELLDGGANPLQRNEMGHTPLDYAREGEVMKLLRTSEAKYQEKQR
The molecule B4 came in with a Kd with FITC-casein [4] of 3.7 µM.

The values are drawn from paper PMC10171807 (Science Advances, 2023).
